The target of experiment [1] is Hsp90 (of the ITC in Supplementary Figure 1). The experiment in a line: ITC. On the technique in general: Isothermal titration calorimetry measures the heat released or taken up as one component is titrated into another.
Another experiment addresses human Skp1 (human) (UniProt P63208). The experiment in a line: ITC.
For the next experiment, the target named is His6-tagged human Hsp90β (human, UniProt P08238 1-724). The experiment can be described thus: pull-down.
His6-tagged human Hsp90β, sequence (P08238 whole entry): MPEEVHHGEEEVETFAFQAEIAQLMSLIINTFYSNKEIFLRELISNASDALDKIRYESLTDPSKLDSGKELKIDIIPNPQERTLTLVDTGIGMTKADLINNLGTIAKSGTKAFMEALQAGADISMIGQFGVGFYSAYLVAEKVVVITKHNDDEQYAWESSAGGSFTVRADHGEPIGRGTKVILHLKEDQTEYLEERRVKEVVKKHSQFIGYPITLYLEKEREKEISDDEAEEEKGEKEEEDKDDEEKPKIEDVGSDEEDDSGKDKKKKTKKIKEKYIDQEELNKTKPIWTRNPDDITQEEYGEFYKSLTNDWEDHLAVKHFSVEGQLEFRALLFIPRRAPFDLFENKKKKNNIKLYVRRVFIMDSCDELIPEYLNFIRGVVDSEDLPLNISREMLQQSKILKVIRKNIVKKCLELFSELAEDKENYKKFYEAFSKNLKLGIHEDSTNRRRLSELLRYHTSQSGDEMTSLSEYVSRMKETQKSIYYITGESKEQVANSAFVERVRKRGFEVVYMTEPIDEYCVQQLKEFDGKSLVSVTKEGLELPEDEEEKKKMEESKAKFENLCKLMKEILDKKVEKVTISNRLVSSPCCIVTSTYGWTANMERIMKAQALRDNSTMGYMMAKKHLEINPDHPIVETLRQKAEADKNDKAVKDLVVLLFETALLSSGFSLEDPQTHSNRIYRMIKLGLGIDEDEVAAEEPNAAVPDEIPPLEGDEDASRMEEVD

A word on the stoichiometry N: it is the number of molecules, sites or subunits per partner or assembly. In turn, “Sgt1 (of the ITC in Supplementary Figure 1) (natural protein)” showed a stoichiometry N in experiment [1] of 1.

B1: human Sgt1, wild type (natural protein, UniProt Q9Y2Z0-2 1-333, looked up)
chain: MAAAAAGTATSQRFFQSFSDALIDEDPQAALEELTKALEQKPDDAQYYCQRAYCHILLGNYCVAVADAKKSLELNPNNSTAMLRKGICEYHEKNYAAALETFTEGQKLDSADANFSVWIKRCQEAQNGSESEVWTHQSKIKYDWYQTESQVVITLMIKNVQKNDVNVEFSEKELSALVKLPSGEDYNLKLELLHPIIPEQSTFKVLSTKIEIKLKKPEAVRWEKLEGQGDVPTPKQFVADVKNLYPSSSPYTRNWDKLVGEIKEEEKNEKLEGDAALNRLFQQIYSDGSDEVKRAMNKSFMESGGTVLSTNWSDVGKRKVEINPPDDMEWKKY
The Kd is the free concentration of one partner at which half of the binding sites on the other are occupied at equilibrium, for simple one-to-one binding. For B1, the Kd in the experiment with human Skp1 (human) is 1640 nM. The binding result with His6-tagged human Hsp90β is “binds”.

The values are drawn from PMC2556094 (The EMBO Journal, 2008).
